Assay [1] relates to B16-OVA melanoma. Briefly: B16-OVA melanoma tumor model. The format is in vivo, mouse. Conditions: for tumor growth, therapeutic setting: B6 mice, immunized 3 days after s.c. inoculation, monitored 16 days after inoculation, vs OVA and PBS groups. The protocol:
B Cohort of mice treated as specified in A with 20 μl of PBS containing OVA (low dose: 1.5 μg or high dose: 3.1 μg), or XCL1-OVA vaccibodies (low dose 2.5 μg or high dose 5.0 μg) were analyzed for tumor volume. Control mice were treated with 20 μl of PBS. Tumor volume is shown for each individual mouse and the mean (horizontal bar) is indicated for each condition.***, p<0.001; **, p<0.01; *, p<0.05 and NS: non significant.
C Time line of the prophylactic setting involving laser-assisted, dermal delivery of 20 μl of PBS containing OVA (1.5 μg) or XCL1-OVA vaccibodies (2.5 μg), subcutaneaous inoculation of the B16-OVA melanoma, and tumor volume measurement.
The B16-OVA melanoma is not rejected by immune-competent syngeneic B6 mice, unless mice have been subjected to prophylactic or therapeutic immunization. To evaluate the capacity of laser-assisted, intradermal delivery of XCL1-OVA vaccibodies to inhibit the growth of B16-OVA tumors, B6 mice were subcutaneously inoculated in the flank with B16-OVA cells (FIG. 4A). Three days later, the ear of the mice was subjected to laser-assisted, dermal delivery of XCL1-OVA vaccibodies and tumor growth was monitored 16 days after inoculation. For the sake of comparison, mice received equimolar amounts of free OVA or PBS. […] To investigate the prophylactic effects on tumor growth of laser-assisted intradermal XCL1-OVA immunization, B6 mice were immunized with XCL1-OVA vaccibodies and subcutaneously inoculated with B16-OVA tumor cells 30 days later (FIG. 4C).
(§1) Mice were injected subcutaneously (s.c.) into the flank with 10^5 B16-OVA or B16 melanoma cells (Brown et al, 2001). Tumor size was assessed 14 to 16 days later using a caliper. The presence of T cells infiltrating the tumor was assessed after enzymatic treatment of tumor mass with collagenase 2 (Worthington) and Percoll gradient (Amersham-Pharmacia).

Assay [2] deals with tumor infiltrating CD8+ and CD4+ T cells. The assay can be described thus: Intracellular IFNgamma and tetramer staining of tumor-infiltrating T cells. The format is in vivo, mouse. The note with it: day 11 after immunization, PMA and ionomycin restimulation. The protocol:
D B6 mice were subcutaneously inoculated with B16-OVA or B16 and immunized 3 days later with 20 μl of PBS containing OVA (1.5 μg) or XCL1-OVA (2.5 μg) vaccibodies using laser-assisted, dermal delivery. On day 11 after immunization, the tumor mass of each mouse was excised and the percentage of […] cells determined among tumor infiltrating CD8^+ and CD4^+ T cells. Data are shown for each individual mouse and the mean (horizontal bar) is indicated for each condition. **, p<0.01; *, p<0.05 and NS for non significant.
A, B, C Mice were immunized as in FIG. 4C. […]
To assess whether the reduction in melanoma tumor growth observed upon treatment with XCL1-OVA vaccibodies was associated with the induction of endogeneous, antigen-specific CD8^+ T cells, wild-type and Xcr1^−/− mice were immunized via laser-assisted intradermal delivery of XCL1-OVA vaccibodies. Six days after immunization, the magnitude of OVA-specific T cell cytotoxicity was measured using an in vivo cytotoxic assay (FIG. 5 C). […]
Mice were injected subcutaneously (s.c.) into the flank with 10^5 B16-OVA or B16 melanoma cells (Brown et al, 2001). Tumor size was assessed 14 to 16 days later using a caliper. The presence of T cells infiltrating the tumor was assessed after enzymatic treatment of tumor mass with collagenase 2 (Worthington) and Percoll gradient (Amersham-Pharmacia). […]

Assay [3] concerns OT-I CD8+ and OT-II CD4+ T cells. The assay can be described thus: Proliferation of adoptively transferred CTV-labeled OT-I and OT-II T cells after laser-assisted dermal antigen delivery. The format is in vivo, mouse. The method, then: B Single-cell suspension were prepared from ear-draining, auricular LNs from B6 mice that received OT-I and OT-II T cells and were immunized by applying on laser-microporated ear 20 μl of PBS containing OVA (3.1 μg), XCL1-OVA vaccibodies (5 μg), XCL1 (1.8 μg) plus OVA (3.1 μg), or PBS alone as a control. CTV dilution of OT-I and OT-II T cells was measured 72 h after antigen delivery. Numbers in histograms indicate the percentage of divided T cells (n=3).
To test whether targeting XCR1^+ dermal DCs with antigen-loaded XCL1-based vaccibodies induced the activation of antigen-specific T cells in vivo, the model antigen OVA was inserted into XCL1-based vaccibodies. Mice were adoptively transferred with CellTraceViolet (CTV)-labeled, OT-I CD8^+ T cells, which express a T cell receptor (TCR) specific for SIINFEKL, an ovalbumin (OVA) peptide presented by H-2K^b, and OT-II CD4^+ T cells, which express a TCR specific for an OVA peptide presented by H2-A^b. One day later, the ear of the mice were subjected to laser-assisted microporation and topical application of XCL1-OVA vaccibodies. To compare the potency of the XCL1-OVA formulation with that of free OVA, mice were also treated with concentrations of OVA equimolar to that present in XCL1-OVA vaccibodies. Three days after immunisation, single-cell suspensions were prepared from ear-draining auricular lymph nodes (LNs) and the extent of OT-I and OT-II cell proliferation was determined by CTV dilution (FIG. 3A).
A P.L.E.A.S.E. portable laser developed by Pantec Biosolutions AG (Bach et al, 2012) was used with the following setting: fluence: 11.9 J/cm^2, pulse duration: 75 μs; RepRate: 200 Hz; pulses per pore: 2, pore array size: 14 mm^2 and pore density 8%. P.L.E.A.S.E.-assisted skin microporation was performed on the ear of anesthetized mice. 20 μl of sterile PBS, 20 μl of sterile PBS containing 1.5 μg (low) or 3.1 μg (high) OVA, or 20 μl of sterile PBS containing 2.5 μg (low) or 5 μg (high) XCL1-OVA were then evenly applied on the microporated ear surface. The PBS solution percolated inside the micropores in less than 10 minutes.
OT-I and OT-II T cells were isolated from pooled LNs and spleen of OT-I or OT-II mice kept on a Rag-2^−/−-B6 [CD45.1] background using CD8^+ and CD4^+ T cell negative isolation kits (Dynal, Invitrogen), respectively. Purity was determined by staining with CD4, CD8, CD5 and TCR Vα2. For CTV labeling, purified OT-I and OT-II T cells were resuspended in PBS containing 2.5 mM cell trace violet (CTV) (Molecular Probes) for 3 min at room temperature. 10^6 CTV-labeled OT-I and OT-II T cells were adoptively transferred into the specified mice. At the indicated times, single-cell suspensions were prepared from the auricular LNs draining the immunized ears and OT-I and OT-II T cells were analyzed by FACS.

Assay [4] concerns B16 melanoma. The assay can be described thus: B16 melanoma tumor model. Format: in vivo, mouse. The note with it: B6 mice immunized 3 days after inoculation, day 11 after immunization. The protocol:
A B6 mice were subcutaneously inoculated with B16-OVA or B16 melanoma, and immunized 3 days later with XCL1-OVA vaccibodies using laser-assisted, dermal delivery. On day 11 after immunization, the volume of the tumor developing in each mouse was determined. Data are shown for each individual mouse and the mean (horizontal bar) is indicated for each condition. **, p<0.01.
The B16-OVA melanoma is not rejected by immune-competent syngeneic B6 mice, unless mice have been subjected to prophylactic or therapeutic immunization. To evaluate the capacity of laser-assisted, intradermal delivery of XCL1-OVA vaccibodies to inhibit the growth of B16-OVA tumors, B6 mice were subcutaneously inoculated in the flank with B16-OVA cells (FIG. 4A). Three days later, the ear of the mice was subjected to laser-assisted, dermal delivery of XCL1-OVA vaccibodies and tumor growth was monitored 16 days after inoculation. For the sake of comparison, mice received equimolar amounts of free OVA or PBS. […]
as §1

Assay [5] concerns SIINFEKL peptide-pulsed splenocytes. Briefly: In vivo cytotoxicity assay. Also noted: species or system mouse. The protocol: C B6 (WT) and Xcr1^−/− mice were subjected to laser-assisted, dermal delivery of 20 μl of PBS containing OVA (1.5 μg) or XCL1-OVA (2.5 μg) vaccibodies or of 20 μl of PBS (control), or. On day 6, mice were injected with CFSE-labeled target cells to quantitate the induced OVA-specific cytotoxicity in vivo (see Materials and Methods). The percent specific lysis is shown for each individual mouse and the mean (horizontal bar) is indicated for each condition. *, p<0.05.
To assess whether the reduction in melanoma tumor growth observed upon treatment with XCL1-OVA vaccibodies was associated with the induction of endogeneous, antigen-specific CD8^+ T cells, wild-type and Xcr1^−/− mice were immunized via laser-assisted intradermal delivery of XCL1-OVA vaccibodies. Six days after immunization, the magnitude of OVA-specific T cell cytotoxicity was measured using an in vivo cytotoxic assay (FIG. 5 C). […] Therefore, laser-assisted, intradermal delivery of XCL1-OVA vaccibodies induced anti-tumoral responses that can be correlated with the presence of OVA-specific IFNgamma^+ T cells in the regressing tumor mass.
Splenocytes from B6 mice were pulsed with the SIINFEKL peptide or left untreated and labeled with low (0.25 mM) or high (2.5 mM) dose of CTV, respectively. […] 36 h later, single-cell suspension were prepared from spleen and the ratio of CTV^high to CTV^low cells was determined by FACS.

[6] abbreviates: B6 mice, auricular LNs, 3 days after immunisation.

For the molecule “ovalbumin [model antigen ovalbumin in free form, equimolar comparator, reference compound]”, the “tumor growth, therapeutic setting” value in assay [1] is “unable to slow down tumor growth”. In assay [2], the “IFN gamma production by CD8+ and CD4+ T cells infiltrating B16-OVA tumor mass” value was “did not induce IFN[…]^+ T cells over PBS control”.

B1: XCL1-OVA vaccibodies: homodimeric chimeric protein of XCL1 chemokine, dimerization unit of hinge and CH3 domain of human IgG3, and OVA antigen moiety (protein)
chain: VGTEVLEESSCVNLQTQRLPVQKIKTYIIWEGAMRAVIFVTKRGLKICADPEAKWVKAAIKTVDGRASTRKNMAETVPTGAQRSTSTAITLTGELKTPLGDTTHTCPRCPEPKSCDTPPPCPRCPEPKSCDTPPPCPRCPEPKSCDTPPPCPRCPAPELLGGPSVFLFPPKPKDTLMISRTPEVTCVVVDVSHEDPEVQFKWYVDGVEVHNAKTKPREEQYNSTFRVVSVLTVLHQDWLNGKEYKCKVSNKALPAPIEKTISKTKGQPREPQVYTLPPSREEMTKNQVSLTCLVKGFYPSDIAVEWESSGQPENNYNTTPPMLDSDGSFFLYSKLTVDKSRWQQGNIFSCSVMHEALHNRFTQKSLSLSPGKGSIGAASMEFCFDVFKELKVHHANENIFYCPIAIMSALAMVYLGAKDSTRTQINKVVRFDKLPGFGDSIEAQCGTSVNVHSSLRDILNQITKPNDVYSFSLASRLYAEERYPILPEYLQCVKELYRGGLEPINFQTAADQARELINSWVESQTNGIIRNVLQPSSVDSQTAMVLVNAIVFKGLWEKAFKDEDTQAMPFRVTEQESKPVQMMYQIGLFRVASMASEKMKILELPFASGTMSMLVLLPDEVSGLEQLESIINFEKLTEWTSSNVMEERKIKVYLPRMKMEEKYNLTSVLMAMGITDVFSSSANLSGISSAESLKISQAVHAAHAEINEAGREVVGSAEAGVDAASVSEEFRADHPFLFCIKHIATNAVLFFGRCVSP
Regarding B1, in assay [3] (setting [6]), the “effectiveness at eliciting CD4+ T cell proliferation relative to free OVA, per molecule” value was determined as 3 times and the “effectiveness at eliciting CD8+ T cell proliferation relative to free OVA, per molecule” value is on record as 15 times. The “OT-I and OT-II cell proliferation (CTV dilution) compared with free OVA” value in assay [3] (B6 mice, ear-draining auricular LNs, 72 h after laser-assisted delivery, equimolar amounts) is “triggered a higher proliferation of OT-I and OT-II cells than free OVA”. In addition, in assay [3] (Xcr1−/− mice), the “magnitude of OT-I and OT-II proliferation” value was “comparable to that of OVA”. The “proliferation of OT-I and OT-II T cells outside draining LNs” value in assay [3] (spleen and LNs that drain territories distinct from the ear, 72 h) is “showed no sign of proliferation”. In addition, the “inhibition of B16-OVA tumor growth, XCR1 dependence” value in assay [1] (B6 (WT) vs Xcr1−/− mice) was “dependent on the expression of XCR1”. For the same molecule, the “tumor growth, prophylactic setting” value in assay [1] (B6 mice immunized 30 days before inoculation, monitored 14 days after inoculation, vs OVA and PBS) is “significantly slowed down tumor growth”. Moreover, in assay [1], the “tumor growth, therapeutic setting” value is recorded as “significantly suppressed tumor growth”. The “tumor growth, therapeutic setting, high dose vs low dose” value in assay [1] (high dose 5.0 μg XCL1-OVA) is “tumor growth was further reduced”. Also, in assay [4], the “tumor growth of B16 melanoma” value is given as “not able to control the growth of B16 melanoma”. Besides, in assay [5] (Xcr1−/− mice), the “OVA-specific T cell cytotoxicity in vivo (specific lysis)” value was “absence of detectable lysis”. In addition, the “OVA-specific T cell cytotoxicity in vivo” value in assay [5] (wild-type mice, six days after immunization, vs PBS treated mice) is “induced a significant T cell cytotoxicity”. Moreover, in assay [2], the “IFN gamma production by CD8+ and CD4+ T cells infiltrating B16-OVA tumor mass” value is “capable of producing interferon (IFN) gamma”.
